Where no end group is shown, it is not given here. fluorescein = fluorescein, a fluorescent label on the peptide N-terminus
Legend:
Experiment in all cases: fluorescence polarisation
DegS I232A = target: T1, DegS I232A (E. coli, UniProt P0AEE3 27-355, I232A)
T1 sequence (looked up): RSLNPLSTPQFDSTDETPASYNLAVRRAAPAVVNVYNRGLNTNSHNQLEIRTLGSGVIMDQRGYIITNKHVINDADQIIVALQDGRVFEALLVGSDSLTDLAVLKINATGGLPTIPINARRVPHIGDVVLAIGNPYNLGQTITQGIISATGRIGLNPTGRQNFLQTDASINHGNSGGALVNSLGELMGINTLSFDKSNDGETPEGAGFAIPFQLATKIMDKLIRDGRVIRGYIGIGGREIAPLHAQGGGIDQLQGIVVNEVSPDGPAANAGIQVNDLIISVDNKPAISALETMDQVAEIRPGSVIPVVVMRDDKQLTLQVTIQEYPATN

DegS T169A/H198P = target: T2, DegS T169A/H198P (E. coli, UniProt P0AEE3 27-355, T169A | H198P)
T2 sequence (looked up): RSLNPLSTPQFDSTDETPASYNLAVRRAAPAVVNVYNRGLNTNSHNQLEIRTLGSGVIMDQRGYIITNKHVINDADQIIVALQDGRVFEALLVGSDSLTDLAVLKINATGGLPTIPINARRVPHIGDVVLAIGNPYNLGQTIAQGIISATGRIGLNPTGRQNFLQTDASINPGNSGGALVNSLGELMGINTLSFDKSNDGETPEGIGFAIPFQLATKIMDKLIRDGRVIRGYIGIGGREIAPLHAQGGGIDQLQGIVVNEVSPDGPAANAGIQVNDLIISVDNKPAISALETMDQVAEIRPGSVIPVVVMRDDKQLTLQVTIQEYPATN

DegS P161A = target: T3, DegS P161A (E. coli, UniProt P0AEE3 27-355, P161A)
T3 sequence (looked up): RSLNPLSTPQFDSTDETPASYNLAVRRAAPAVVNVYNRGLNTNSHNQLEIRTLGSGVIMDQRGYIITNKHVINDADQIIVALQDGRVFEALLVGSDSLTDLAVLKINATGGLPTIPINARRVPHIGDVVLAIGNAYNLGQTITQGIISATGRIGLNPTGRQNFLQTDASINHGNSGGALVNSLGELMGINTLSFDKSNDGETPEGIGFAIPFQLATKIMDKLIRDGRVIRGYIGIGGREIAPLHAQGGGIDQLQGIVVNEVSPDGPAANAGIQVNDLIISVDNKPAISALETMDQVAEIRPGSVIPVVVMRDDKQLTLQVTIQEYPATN

DegS F234A = target: T4, DegS F234A (E. coli, UniProt P0AEE3 27-355, F234A)
T4 sequence (looked up): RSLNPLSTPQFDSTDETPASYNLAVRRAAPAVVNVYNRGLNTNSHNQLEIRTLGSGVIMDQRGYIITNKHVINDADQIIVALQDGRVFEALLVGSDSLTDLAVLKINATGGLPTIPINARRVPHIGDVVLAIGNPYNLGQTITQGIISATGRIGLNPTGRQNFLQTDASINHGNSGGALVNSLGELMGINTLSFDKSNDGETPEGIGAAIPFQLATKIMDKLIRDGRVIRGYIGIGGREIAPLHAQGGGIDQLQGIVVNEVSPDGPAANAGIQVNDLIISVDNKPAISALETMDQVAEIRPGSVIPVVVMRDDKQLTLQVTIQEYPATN

DegS R178A = target: T5, DegS R178A (E. coli, UniProt P0AEE3 27-355, R178A)
T5 sequence (looked up): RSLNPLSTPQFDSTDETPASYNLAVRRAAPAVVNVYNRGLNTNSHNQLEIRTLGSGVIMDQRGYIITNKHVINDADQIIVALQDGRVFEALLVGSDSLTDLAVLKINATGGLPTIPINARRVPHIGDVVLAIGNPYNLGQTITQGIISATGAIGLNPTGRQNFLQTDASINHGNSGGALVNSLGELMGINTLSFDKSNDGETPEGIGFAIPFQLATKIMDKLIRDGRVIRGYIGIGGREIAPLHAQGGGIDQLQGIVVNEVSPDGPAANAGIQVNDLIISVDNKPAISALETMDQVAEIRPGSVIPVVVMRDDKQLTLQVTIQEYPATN

DegS N197A = target: T6, DegS N197A (E. coli, UniProt P0AEE3 27-355, N197A)
T6 sequence (looked up): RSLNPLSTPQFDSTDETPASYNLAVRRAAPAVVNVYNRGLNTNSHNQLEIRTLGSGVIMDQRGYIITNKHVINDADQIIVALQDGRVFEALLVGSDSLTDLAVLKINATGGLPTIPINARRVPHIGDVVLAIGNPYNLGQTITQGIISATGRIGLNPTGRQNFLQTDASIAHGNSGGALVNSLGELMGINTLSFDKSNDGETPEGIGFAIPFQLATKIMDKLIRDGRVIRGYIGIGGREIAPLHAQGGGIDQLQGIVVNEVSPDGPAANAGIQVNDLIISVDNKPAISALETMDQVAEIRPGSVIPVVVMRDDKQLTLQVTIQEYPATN

A Kd (DegS I232A) of 2.2 ± 0.3 µM, a Kd (DegS T169A/H198P) of 2 ± 0.2 µM and a Kd (DegS P161A) of 1.5 ± 0.1 µM were found for fluorescein-DNRDGNVYYF [fluorescent OMP peptide fluorescein-DNRDGNVYYF] in this work. The Kd (DegS F234A) was 5.9 ± 0.6 µM, the Kd (DegS R178A) was 3.6 ± 0.2 µM and the Kd (DegS N197A) was 1.4 ± 0.1 µM.

From paper PMC4351158 (Structure (London, England : 1993), 2015)
